T1: Pep-8 (gp350 aa 142–161) (Epstein-Barr virus, strain B95-8)
T1 chain: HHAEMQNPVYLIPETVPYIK

B1: HB8 (antibody, V domains shown)
VH: ELKKPGETVKISCKASGYSFTNYGMNWVKQAPGKGLKWMGWINTYTGEPTYADDFKGRFAFSLETSASTAFLQINNLKNEDTATYLCARYYYGSVYSAWFAYWGQGTLVTVSA
VL: LSLPVSLGDQASISCRSSQSIVHSNGNTYLEWYLQKAGQSPKLLIYKVSNRFSGVPDRFGGSGSGTDFTLKISRVEAEDLGVYYCFQGSHVPYTFGGGTKLEIK
B2: HB9 (antibody, V domains shown)
VH: GGLVKPGGSLKLSCAASGFTFSSYTMSWVRQTPEKRLEWVATISSGGSYIYYPDSVKGRFTISRDNAKNTLYLQMSSLKSEDTAIYYCTREDFYYGSSYGFFDVWGAGTTVTVSS
VL: LSLPVSLGDQASISCRSSQSIVHSNGNTYLEWYLQKAGQSPKLLIYKVSNRFSGVPDRFGGSGSGTDFTLKISRVEAEDLGVYYCFQGSHVPYTFGGGTKLEIK
B3: HB14 (antibody, V domains shown)
VH: SGAELVRPGASVNLSCKALGYTFTDYEMHWVKQTPVYGLEWIGTIHPRRGGTAYNQRFKGKAALTADKSSSTAYMELSSLTSEDSAVYYCARYGYPWYFDVWGAGTTVTVSS
VL: SLPVSLGDQASISCRSSQSIVHDNGNTYLEWYLQKPGQSPKLLIYKVSNRFSGVLDKFSGSGSGTDFTLKISRVEAEDLGIYYCFQGSHVPPTFGGGTKLEIK
B4: HB22 (antibody, V domains shown)
VH: GLVAPSQSLSITCTVSGFSLTNYGIHWVRQPPGKGLEWLVVIWSDGSTIYNSALKSRLSISKDNSKSQVFLKMNSLQTDDTAMYYCARNYYGNSYPAWFAYWGQGTLVTVSA
VL: SLPVSLGDQASISCRSSQSIVHSNGNTYLEWYLQKPGQSPKLLIYKVSNRFSGVPDRFSGSGSGTDFTLRISRVEAEDLGVYYCFQGSHVPWTFGGGTKLEIK
B5: HB7 (antibody, V domains shown)
VH: ELVRPGASVKLSCKALGYTFTDYEMHWVKQTPVHGLEWIGTISPGRSGTAYNQKFKGKATLTADKSSRTAYMELNSLTSEDSAVYYCSRYGHPSYLDVWGAGTTVTVSS
VL: FMSTSVGDRVNITCKASQSVGNAVAWFQQKPGQSPKLLIYSASNRYTGIPDRFTGSGSGTDFTLTCNNMQSEDLADYFCQQYSSYPLTFGAGTKLELK
B6: HB2 (antibody, V domains shown)
VH: ELKKPGETVKISCKASGYTFTAYSMHWVKLTPGKGLKWMGWINTKTGEPTYADDFKGRFAFSLETSASTAYLQINNLKNEDTATYFCAPYGYALDYWGQGTSVTVSS
VL: ILSASPGEKVTMTCRATSSVNYMHWYQQKPGSSPKPWIYATSNLASGVPARFSGSGSGTSYSLTISRVEAEDAATYYCQQWSSNPPTFGAGTKLELK
B7: HB6 (antibody, V domains shown)
VH: ELRKPGETVKISCKASGYTFTDYSMHWVKQTPGKGLKWMGWINTRTGEPRYADDFKGRFAFSLETSASTAYLQINNLKNEDTATYFCAPYGYALDYWGQGTSVTVSS
VL: ILSASPGEKVTMTCRATSSVNYMHWYQQKPGSSPKPWIYATSNLASGVPARFSGSGSGTSYSLTISRVEAEDAATYYCQQWSSNPPTFGAGTKLELK
B8: HB17 (antibody, V domains shown)
VH: ELVIPGASVKVSCKASGYTFTSYWIHWVKQWPGQGLEWIGEINPNNGHTNYNEKFKSKATLTVDKSSSTAYMQLSSLTSEDSAVYYCARNLFYYSRPDYWGQGTSVTVSS
VL: SLSASLGDRVTISCRASQDIGNYLNWYQQKPDGTIKLLIYYTSRLHSGVPSRFSGSGSGTDYSLTISNLEEEDIATYFCQQGNTLPPTFGGGTKLEIK
B9: HB10 (antibody, V domains shown)
VH: ELVRPGASVKLSCKASGYTFTSYWMHWVKQWPGQGPEWIGEINPSNGHTNYNERFKNKATLTVDKSSSTAYMQLSSLTSEDSAVYYCARNLYYYGRPDYWGQGTSVTVSS
VL: SLSASLGDRVTISCRASQDIGNYLNWYQQKPDGTVKLLIYYTSRLHSGVPSRFSGSGSGTDYSLTISNLEEEDIATYFCQQGNTLPPTFGGGTKLEIK
B10: HB3 (antibody, V domains shown)
VH: ELVRPGASVKLSCKASGYTFASYWMQWVKQWPGQGLEWIGEINPNNGHTNYNERFKNKASLTVDKSSSTAYMQLSSLTSEDSAVYYCARNLYYYGRPDYWGQGTSVTVSS
VL: SLSASLGDRVTISCRASQDIGNYLNWYQQKPDGTIKLLIYYTSRLHSGVPSRFSGSGSGTDYSLTISNLEEEDIATYFCQQGNTLPPTFGGGTKLEIK
B11: humanized 72A1 (h72A1) (antibody, V domains shown)
VH: EVQLVESGGGLVQPGGSLRLSCAASGSSFTDYTMNWMRQSPGKGLEWIGLINPYNGGTRYADSVKGRATLSLDKSKNTAYLQMNSLRAEDTAIYYCAGGLRRVNWFAYWGQGTLVTVSS
VL: DAQLTQSPILLSASVGDRVTITCRSSTGAVTTSNYANWVQERTNGSFRGLIGGTNNRVPGVPSRFSGSLSGDDATLTISSLQPEDEADYFCVLWHSNHWVFGAGTKVEIK
B12: HB5 (antibody, V domains shown)
VH: ELVRPGASVKISCKAFGYTFTNHNINWVKQRPGQGLDWIGYINPYNDYTSYNQKFKGKATLTVDKSSNTAYMELSSLTSEDSAVYYCARSEGWLRRGAWFAYWGQGTLVTVSA
VL: ILSVSPGERVSFSCRASQSIGTSIHWYQQRTNDSPRLLIKYASESISGIPPRFSGSGSGTDFTLSINSVESEDIADYHCQQSNSWPMLTFGAGTKLELK
B13: HB20 (antibody, V domains shown)
VH: ELVKPGASVKLSCKASGYTFTSYWIQWVKQRPGQGLEWIGEINPTNGHTNYNEKFKTKATLTVDKSSSTAYMRLSSLTSEDSAVYYCARNLYYYGRPDYWGQGTSVTVSS
VL: SLSASLGDRVTISCRASQDIGNYLNWYQQKPDGTVKLLIYYTSRLHSGVPSRFSGSGSGTDYSLTISNLEQEDIATYFCQQGNALPPTFGGGTKLEIK
B14: HB11 (antibody, V domains shown)
VH: SLVKPSQTLSLTCSVTGDSITSGFWNWIRKFPGNKLEYMGYISYSGSTYYNPSLKSRISITRDTSKNQYYLQLNSVTTEDTATYYCARGNGGNYDWYFDVWGAGTTVTVSS
VL: IMSASLGEKVTMSCRASSSVNFMNWYQQKSDDSPKLLIYYISNLAPGVPARFSGSGSGNSYSLTISGMEGEDAATYYCQQFTSSPSWTFGGGTKLEIK
B15: murine 72A1 (m72A1) (antibody, V domains shown)
VH: EVQLQQSGPELVKPGTSMKISCKASGSSFTDYTMNWMKQSHGKNLEWIGLINPYNGGTRYNQKFKGKATLTLDKSSSTAYMEVLSLTSEDSAVYYCAGGLRRVNWFAYWGQGTLVSVSA
VL: QAVLTQESALTTSPGETVTLTCRSSTGAVTTSNYANWVQEKPDHLFTGLIGGTNNRVPGVPARFSGSLIGDKAALTITGAQTEDEAIYFCVLWHSNHWVFGGGTKLTVL

T2 sequence (P03200 4-863): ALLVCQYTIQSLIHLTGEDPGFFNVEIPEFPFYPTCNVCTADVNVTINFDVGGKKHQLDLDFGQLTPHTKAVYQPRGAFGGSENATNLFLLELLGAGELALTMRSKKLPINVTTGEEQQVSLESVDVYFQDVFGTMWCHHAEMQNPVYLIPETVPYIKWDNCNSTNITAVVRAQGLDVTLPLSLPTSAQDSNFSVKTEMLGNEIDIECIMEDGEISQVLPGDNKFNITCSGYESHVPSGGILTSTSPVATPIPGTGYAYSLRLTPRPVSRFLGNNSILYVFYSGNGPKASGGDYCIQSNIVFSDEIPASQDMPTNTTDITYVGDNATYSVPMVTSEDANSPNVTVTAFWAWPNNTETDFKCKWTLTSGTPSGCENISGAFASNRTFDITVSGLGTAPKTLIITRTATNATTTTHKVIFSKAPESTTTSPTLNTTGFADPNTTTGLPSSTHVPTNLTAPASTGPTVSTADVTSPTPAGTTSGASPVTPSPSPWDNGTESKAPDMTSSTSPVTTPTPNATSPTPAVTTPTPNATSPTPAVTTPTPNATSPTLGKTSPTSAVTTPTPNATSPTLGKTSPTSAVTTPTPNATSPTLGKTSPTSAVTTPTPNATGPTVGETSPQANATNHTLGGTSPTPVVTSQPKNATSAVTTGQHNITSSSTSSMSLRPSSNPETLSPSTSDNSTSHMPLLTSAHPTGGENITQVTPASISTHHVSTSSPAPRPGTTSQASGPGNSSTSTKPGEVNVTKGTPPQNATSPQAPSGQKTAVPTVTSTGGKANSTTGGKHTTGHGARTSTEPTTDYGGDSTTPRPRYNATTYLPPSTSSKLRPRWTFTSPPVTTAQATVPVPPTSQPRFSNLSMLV

One experiment addresses T2, recombinant EBV gp350 ectodomain (aa 4–863) (Epstein-Barr virus, strain  …, UniProt P03200-1). The experiment can be described thus: ELISA. (In general: In an ELISA, binding on a coated surface is turned into a signal by an enzyme label.)
Turning to B1, the binding result is “binds”.
The same measure, in the same setting: for B2 the value was “binds”; for B3, “binds”; for B4, “binds”.
On to B5, for which the binding result is reported as “binds”.
Same read-out and setting: for B6 the value was “binds”; for B7, “binds”; for B8, “binds”.
For B9, the binding result is “binds”.
On the same count and under the same terms, for B10 the value was “binds”.

For a further experiment, the target named is T2, recombinant EBV gp350 ectodomain (aa …). The experiment in a line: ELISA. This is another data set of the same source.
Take B11: the binding result is “binds”.

The next experiment deals with T1, Pep-8 (gp350 aa 142–161). The experiment can be described thus: ELISA.
For B11, the binding result was “binds”.
On the same count and under the same terms, for B12 the value was “binds”; for B13, “binds”.
As for B14, the binding result is “binds”.
Same read-out and setting: for B15 the value was “binds”.
